To fix the notation:
B1: CE115HA000/GLS3000 S27eA (antibody, IgG1, name in Kabat numbering, V domains shown)
VH: QVQLVESGGGVVQPGRSLRLSCAASGFTFSNAWMHWVRQAPGKGLEWVAQIKAKSNNYATYYAESVKGRFTISRDDSKNSLYLQMNSLKTEDTAVYYCRYVHYGAYYGVDAWGQGTTVTVSS
VL: DIVMTQSPLSLPVTPGEPASISCRSSQSLVHANRNTYLHWYQQKPGQAPRLLIYKVSNRFSGVPDRFSGSGSGTDFTLKISRVEAEDVGVYYCGQGTQVPYTFGQGTKLEIK
notes: one-arm IgG1
B2: CE115HA000/GLS3000 F55G (antibody, IgG1, name in Kabat numbering, V domains shown)
VH: QVQLVESGGGVVQPGRSLRLSCAASGFTFSNAWMHWVRQAPGKGLEWVAQIKAKSNNYATYYAESVKGRFTISRDDSKNSLYLQMNSLKTEDTAVYYCRYVHYGAYYGVDAWGQGTTVTVSS
VL: DIVMTQSPLSLPVTPGEPASISCRSSQSLVHSNRNTYLHWYQQKPGQAPRLLIYKVSNRGSGVPDRFSGSGSGTDFTLKISRVEAEDVGVYYCGQGTQVPYTFGQGTKLEIK
notes: one-arm IgG1
B3: CE115HA000/GLS3000 F55M (antibody, IgG1, name in Kabat numbering, V domains shown)
VH: QVQLVESGGGVVQPGRSLRLSCAASGFTFSNAWMHWVRQAPGKGLEWVAQIKAKSNNYATYYAESVKGRFTISRDDSKNSLYLQMNSLKTEDTAVYYCRYVHYGAYYGVDAWGQGTTVTVSS
VL: DIVMTQSPLSLPVTPGEPASISCRSSQSLVHSNRNTYLHWYQQKPGQAPRLLIYKVSNRMSGVPDRFSGSGSGTDFTLKISRVEAEDVGVYYCGQGTQVPYTFGQGTKLEIK
notes: one-arm IgG1
B4: CE115HA000/GLS3000 F55K (antibody, IgG1, name in Kabat numbering, V domains shown)
VH: QVQLVESGGGVVQPGRSLRLSCAASGFTFSNAWMHWVRQAPGKGLEWVAQIKAKSNNYATYYAESVKGRFTISRDDSKNSLYLQMNSLKTEDTAVYYCRYVHYGAYYGVDAWGQGTTVTVSS
VL: DIVMTQSPLSLPVTPGEPASISCRSSQSLVHSNRNTYLHWYQQKPGQAPRLLIYKVSNRKSGVPDRFSGSGSGTDFTLKISRVEAEDVGVYYCGQGTQVPYTFGQGTKLEIK
notes: one-arm IgG1
B5: CE115HA000/GLS3000 F55I (antibody, IgG1, name in Kabat numbering, V domains shown)
VH: QVQLVESGGGVVQPGRSLRLSCAASGFTFSNAWMHWVRQAPGKGLEWVAQIKAKSNNYATYYAESVKGRFTISRDDSKNSLYLQMNSLKTEDTAVYYCRYVHYGAYYGVDAWGQGTTVTVSS
VL: DIVMTQSPLSLPVTPGEPASISCRSSQSLVHSNRNTYLHWYQQKPGQAPRLLIYKVSNRISGVPDRFSGSGSGTDFTLKISRVEAEDVGVYYCGQGTQVPYTFGQGTKLEIK
notes: one-arm IgG1
B6: CE115HA000/GLS3000 F55P (antibody, IgG1, name in Kabat numbering, V domains shown)
VH: QVQLVESGGGVVQPGRSLRLSCAASGFTFSNAWMHWVRQAPGKGLEWVAQIKAKSNNYATYYAESVKGRFTISRDDSKNSLYLQMNSLKTEDTAVYYCRYVHYGAYYGVDAWGQGTTVTVSS
VL: DIVMTQSPLSLPVTPGEPASISCRSSQSLVHSNRNTYLHWYQQKPGQAPRLLIYKVSNRPSGVPDRFSGSGSGTDFTLKISRVEAEDVGVYYCGQGTQVPYTFGQGTKLEIK
notes: one-arm IgG1
B7: CE115HA000/GLS3000 F55N (antibody, IgG1, name in Kabat numbering, V domains shown)
VH: QVQLVESGGGVVQPGRSLRLSCAASGFTFSNAWMHWVRQAPGKGLEWVAQIKAKSNNYATYYAESVKGRFTISRDDSKNSLYLQMNSLKTEDTAVYYCRYVHYGAYYGVDAWGQGTTVTVSS
VL: DIVMTQSPLSLPVTPGEPASISCRSSQSLVHSNRNTYLHWYQQKPGQAPRLLIYKVSNRNSGVPDRFSGSGSGTDFTLKISRVEAEDVGVYYCGQGTQVPYTFGQGTKLEIK
notes: one-arm IgG1
B8: CE115HA000/GLS3000 F55L (antibody, IgG1, name in Kabat numbering, V domains shown)
VH: QVQLVESGGGVVQPGRSLRLSCAASGFTFSNAWMHWVRQAPGKGLEWVAQIKAKSNNYATYYAESVKGRFTISRDDSKNSLYLQMNSLKTEDTAVYYCRYVHYGAYYGVDAWGQGTTVTVSS
VL: DIVMTQSPLSLPVTPGEPASISCRSSQSLVHSNRNTYLHWYQQKPGQAPRLLIYKVSNRLSGVPDRFSGSGSGTDFTLKISRVEAEDVGVYYCGQGTQVPYTFGQGTKLEIK
notes: one-arm IgG1
B9: CE115HA000/GLS3000 F55D (antibody, IgG1, name in Kabat numbering, V domains shown)
VH: QVQLVESGGGVVQPGRSLRLSCAASGFTFSNAWMHWVRQAPGKGLEWVAQIKAKSNNYATYYAESVKGRFTISRDDSKNSLYLQMNSLKTEDTAVYYCRYVHYGAYYGVDAWGQGTTVTVSS
VL: DIVMTQSPLSLPVTPGEPASISCRSSQSLVHSNRNTYLHWYQQKPGQAPRLLIYKVSNRDSGVPDRFSGSGSGTDFTLKISRVEAEDVGVYYCGQGTQVPYTFGQGTKLEIK
notes: one-arm IgG1
B10: CE115HA000/GLS3000 F55H (antibody, IgG1, name in Kabat numbering, V domains shown)
VH: QVQLVESGGGVVQPGRSLRLSCAASGFTFSNAWMHWVRQAPGKGLEWVAQIKAKSNNYATYYAESVKGRFTISRDDSKNSLYLQMNSLKTEDTAVYYCRYVHYGAYYGVDAWGQGTTVTVSS
VL: DIVMTQSPLSLPVTPGEPASISCRSSQSLVHSNRNTYLHWYQQKPGQAPRLLIYKVSNRHSGVPDRFSGSGSGTDFTLKISRVEAEDVGVYYCGQGTQVPYTFGQGTKLEIK
notes: one-arm IgG1
B11: CE115HA000/GLS3000 F55E (antibody, IgG1, name in Kabat numbering, V domains shown)
VH: QVQLVESGGGVVQPGRSLRLSCAASGFTFSNAWMHWVRQAPGKGLEWVAQIKAKSNNYATYYAESVKGRFTISRDDSKNSLYLQMNSLKTEDTAVYYCRYVHYGAYYGVDAWGQGTTVTVSS
VL: DIVMTQSPLSLPVTPGEPASISCRSSQSLVHSNRNTYLHWYQQKPGQAPRLLIYKVSNRESGVPDRFSGSGSGTDFTLKISRVEAEDVGVYYCGQGTQVPYTFGQGTKLEIK
notes: one-arm IgG1
B12: CE115HA000/GLS3000 F55A (antibody, IgG1, name in Kabat numbering, V domains shown)
VH: QVQLVESGGGVVQPGRSLRLSCAASGFTFSNAWMHWVRQAPGKGLEWVAQIKAKSNNYATYYAESVKGRFTISRDDSKNSLYLQMNSLKTEDTAVYYCRYVHYGAYYGVDAWGQGTTVTVSS
VL: DIVMTQSPLSLPVTPGEPASISCRSSQSLVHSNRNTYLHWYQQKPGQAPRLLIYKVSNRASGVPDRFSGSGSGTDFTLKISRVEAEDVGVYYCGQGTQVPYTFGQGTKLEIK
notes: one-arm IgG1
B13: GLS3000 Y32D (antibody, name in Kabat numbering, V domains shown)
VH: QVQLVESGGGVVQPGRSLRLSCAASGFTFSNAWMHWVRQAPGKGLEWVAQIKAKSNNYATYYAESVKGRFTISRDDSKNSLYLQMNSLKTEDTAVYYCRYVHYGAYYGVDAWGQGTTVTVSS
VL: DIVMTQSPLSLPVTPGEPASISCRSSQSLVHSNRNTDLHWYQQKPGQAPRLLIYKVSNRFSGVPDRFSGSGSGTDFTLKISRVEAEDVGVYYCGQGTQVPYTFGQGTKLEIK
notes: one-arm IgG as m2
B14: GLS3000 Y96H (antibody, name in Kabat numbering, V domains shown)
VH: QVQLVESGGGVVQPGRSLRLSCAASGFTFSNAWMHWVRQAPGKGLEWVAQIKAKSNNYATYYAESVKGRFTISRDDSKNSLYLQMNSLKTEDTAVYYCRYVHYGAYYGVDAWGQGTTVTVSS
VL: DIVMTQSPLSLPVTPGEPASISCRSSQSLVHSNRNTYLHWYQQKPGQAPRLLIYKVSNRFSGVPDRFSGSGSGTDFTLKISRVEAEDVGVYYCGQGTQVPHTFGQGTKLEIK
notes: one-arm IgG as m2
B15: GLS3000 Y96D (antibody, name in Kabat numbering, V domains shown)
VH: QVQLVESGGGVVQPGRSLRLSCAASGFTFSNAWMHWVRQAPGKGLEWVAQIKAKSNNYATYYAESVKGRFTISRDDSKNSLYLQMNSLKTEDTAVYYCRYVHYGAYYGVDAWGQGTTVTVSS
VL: DIVMTQSPLSLPVTPGEPASISCRSSQSLVHSNRNTYLHWYQQKPGQAPRLLIYKVSNRFSGVPDRFSGSGSGTDFTLKISRVEAEDVGVYYCGQGTQVPDTFGQGTKLEIK
notes: one-arm IgG as m2
B16: GLS3000 Y32P (antibody, name in Kabat numbering, V domains shown)
VH: QVQLVESGGGVVQPGRSLRLSCAASGFTFSNAWMHWVRQAPGKGLEWVAQIKAKSNNYATYYAESVKGRFTISRDDSKNSLYLQMNSLKTEDTAVYYCRYVHYGAYYGVDAWGQGTTVTVSS
VL: DIVMTQSPLSLPVTPGEPASISCRSSQSLVHSNRNTPLHWYQQKPGQAPRLLIYKVSNRFSGVPDRFSGSGSGTDFTLKISRVEAEDVGVYYCGQGTQVPYTFGQGTKLEIK
notes: one-arm IgG as m2
B17: GLS3000 Y96F (antibody, name in Kabat numbering, V domains shown)
VH: QVQLVESGGGVVQPGRSLRLSCAASGFTFSNAWMHWVRQAPGKGLEWVAQIKAKSNNYATYYAESVKGRFTISRDDSKNSLYLQMNSLKTEDTAVYYCRYVHYGAYYGVDAWGQGTTVTVSS
VL: DIVMTQSPLSLPVTPGEPASISCRSSQSLVHSNRNTYLHWYQQKPGQAPRLLIYKVSNRFSGVPDRFSGSGSGTDFTLKISRVEAEDVGVYYCGQGTQVPFTFGQGTKLEIK
notes: one-arm IgG as m2
B18: GLS3000 Y96L (antibody, name in Kabat numbering, V domains shown)
VH: QVQLVESGGGVVQPGRSLRLSCAASGFTFSNAWMHWVRQAPGKGLEWVAQIKAKSNNYATYYAESVKGRFTISRDDSKNSLYLQMNSLKTEDTAVYYCRYVHYGAYYGVDAWGQGTTVTVSS
VL: DIVMTQSPLSLPVTPGEPASISCRSSQSLVHSNRNTYLHWYQQKPGQAPRLLIYKVSNRFSGVPDRFSGSGSGTDFTLKISRVEAEDVGVYYCGQGTQVPLTFGQGTKLEIK
notes: one-arm IgG as m2
B19: GLS3000 Y96E (antibody, name in Kabat numbering, V domains shown)
VH: QVQLVESGGGVVQPGRSLRLSCAASGFTFSNAWMHWVRQAPGKGLEWVAQIKAKSNNYATYYAESVKGRFTISRDDSKNSLYLQMNSLKTEDTAVYYCRYVHYGAYYGVDAWGQGTTVTVSS
VL: DIVMTQSPLSLPVTPGEPASISCRSSQSLVHSNRNTYLHWYQQKPGQAPRLLIYKVSNRFSGVPDRFSGSGSGTDFTLKISRVEAEDVGVYYCGQGTQVPETFGQGTKLEIK
notes: one-arm IgG as m2
B20: GLS3000 Y32F (antibody, name in Kabat numbering, V domains shown)
VH: QVQLVESGGGVVQPGRSLRLSCAASGFTFSNAWMHWVRQAPGKGLEWVAQIKAKSNNYATYYAESVKGRFTISRDDSKNSLYLQMNSLKTEDTAVYYCRYVHYGAYYGVDAWGQGTTVTVSS
VL: DIVMTQSPLSLPVTPGEPASISCRSSQSLVHSNRNTFLHWYQQKPGQAPRLLIYKVSNRFSGVPDRFSGSGSGTDFTLKISRVEAEDVGVYYCGQGTQVPYTFGQGTKLEIK
notes: one-arm IgG as m2

In the first test the target is T1, CD3 epsilon homodimer protein (UniProt P07766 23-126).
T1 construct: also called CD3 (CD3 epsilon)
In words: SPR, antibody over immobilised CD3e homodimer.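 Note: SPR at 25 °C with CD3 epsilon homodimer amine-coupled to a CM4 sensor chip and antibody flowed over as analyte in HBS-EP+ running buffer.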 Background: In SPR one partner is held on a chip, and binding of the other changes the refractive index at the surface.
T1 sequence (P07766 23-126): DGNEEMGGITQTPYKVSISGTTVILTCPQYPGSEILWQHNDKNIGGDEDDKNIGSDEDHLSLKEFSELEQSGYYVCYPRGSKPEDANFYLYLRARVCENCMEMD
As for B1, the “KD ratio to GLS3000” value turned out to be 1.01.

B2: the “KD ratio to GLS3000” value was 1.15. The same measure, in the same setting: next, B3: 1.29; B4: 1.55; B5: 1.28. On the same count and under the same terms, next, B6: 1.15; B7: 0.91; B8: 1.43. As to B9, the “KD ratio to GLS3000” value is 1.02. The same measure, in the same setting: next, B10: 1.02; B11: 0.92.

Consider B12, for which the “KD ratio to GLS3000” value came out at 1.16.

A further test concerns the target T2, CD3 epsilon homodimer protein (UniProt P07766 23-126).
T2 construct: also called CD3 (CD3 epsilon)
Kind of test: SPR Biacore T200, CD3e homodimer on chip, vs unaltered GLS3000 antibody.
T2 sequence (P07766 23-126): as above
Consider B13, for which the “ratio of amounts bound (Z=Y/X)” value came out at 0.23. The same measure, in the same setting: next, B14: 0.23. On the same count and under the same terms, next, B15: 0.17; B16: 0.24. Same read-out and setting: next, B17: 1.17.

Consider B18, for which the “ratio of amounts bound (Z=Y/X)” value was 0.32. On the same count and under the same terms, next, B19: 0.17; B20: 0.29.
